According to the supplement of paper PMC5998384:

Assays:
HeLa Kyoto [1] = assay: melting temperature (median over replicates), in situ; higher = more thermally stable
HeLa Kyoto [2] = assay: solubility in G1/S (NP-40 vs SDS abundance) (log2 ratio); higher = more soluble; conditions: cell cycle stage: G1/S
HeLa Kyoto [3] = assay: solubility change mitosis vs G1/S (difference of NP-40 vs SDS log2 ratios) (log2 ratio difference); higher = more soluble in mitosis
HeLa Kyoto [4] = assay: thermal stability score vs G1/S (z-score of summed log2 fold changes over temperatures); higher = more thermally stable than in G1/S
[5] = cell cycle stage: early G1 (4.5 h after nocodazole release)
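Wherever melting temperature (median over replicates), in situ is given: HeLa Kyoto cells synchronized by double thymidine or nocodazole block, proteins quantified by TMT10plex mass spectrometry, three independent biological replicates.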
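Wherever solubility change mitosis vs G1/S (difference of NP-40 vs SDS log2 ratios) is given: synchronized HeLa Kyoto cells (double thymidine block for G1/S, nocodazole release for mitosis), protein amounts in NP-40 versus SDS lysates quantified by mass spectrometry, three biological replicates.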
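Wherever solubility in G1/S (NP-40 vs SDS abundance) is given: HeLa Kyoto cells arrested at G1/S by double thymidine block, proteins quantified by TMT10plex mass spectrometry in mild NP-40 versus SDS extracts, three biological replicates.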
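Wherever thermal stability score vs G1/S (z-score of summed log2 fold changes over temperatures) is given: synchronized HeLa Kyoto cells, proteins quantified by TMT10plex mass spectrometry, three biological replicates, mitosis taken 0.5 h after nocodazole release, G1/S directly after double thymidine block.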

Row | Sequence | melting temperature (HeLa Kyoto [1]; cell cycle stage: G1/S) | melting temperature (HeLa Kyoto [1]; cell cycle stage: mitosis) | solubility in G1/S (log2) (HeLa Kyoto [2]) | solubility change mitosis (log2) (HeLa Kyoto [3]) | thermal stability score (HeLa Kyoto [4]; [5]) | thermal stability score (HeLa Kyoto [4]; cell cycle stage: mitosis)
1 | MAFWAGGSPSVVDYFPSEDFYRCGYCKNESGSRSNGMWAHSMTVQDYQDLIDRGWRRSGKYVYKPVMNQTCCPQYTIRCRPLQFQPSKSHKKVLKKMLKFLAKGEVPKGSCEDEPMDSTMDDAVAGDFALINKLDIQCDLKTLSDDIKESLESEGKNSKKEEPQELLQSQDFVGEKLGSGEPSHSVKVHTVPKPGKGADLSKPPCRKAKEIRKERKRLKLMQQNPAGELEGFQAQGHPPSLFPPKAKSNQPKSLEDLIFESLPENASHKLEVRVVRSSPPSSQFKATLLESYQVYKRYQMVIHKNPPDTPTESQFTRFLCSSPLEAETPPNGPDCGYGSFHQQYWLDGKIIAVGVIDILPNCVSSVYLYYDPDYSFLSLGVYSALREIAFTRQLHEKTSQLSYYYMGFYIHSCPKMKYKGQYRPSDLLCPETYVWVPIEQCLPSLENSKYCRFNQDPEAVDEDRSTEPDRLQVFHKRAIMPYGVYKKQQKDPSEEAAVLQYASLVGQKCSERMLLFRN [ATE1] | 51 °C | 50.8 °C | 0.211 | -0.352 | 0.0147 | 0.195
2 | MAGAAGLTAEVSWKVLERRARTKRSGSVYEPLKSINLPRPDNETLWDKLDHYYRIVKSTLLLYQSPTTGLFPTKTCGGDQKAKIQDSLYCAAGAWALALAYRRIDDDKGRTHELEHSAIKCMRGILYCYMRQADKVQQFKQDPRPTTCLHSVFNVHTGDELLSYEEYGHLQINAVSLYLLYLVEMISSGLQIIYNTDEVSFIQNLVFCVERVYRVPDFGVWERGSKYNNGSTELHSSSVGLAKAALEAINGFNLFGNQGCSWSVIFVDLDAHNRNRQTLCSLLPRESRSHNTDAALLPCISYPAFALDDEVLFSQTLDKVVRKLKGKYGFKRFLRDGYRTSLEDPNRCYYKPAEIKLFDGIECEFPIFFLYMMIDGVFRGNPKQVQEYQDLLTPVLHHTTEGYPVVPKYYYVPADFVEYEKNNPGSQKRFPSNCGRDGKLFLWGQALYIIAKLLADELISPKDIDPVQRYVPLKDQRNVSMRFSNQGPLENDLVVHVALIAESQRLQVFLNTYGIQTQTPQQVEPIQIWPQQELVKAYLQLGINEKLGLSGRPDRPIGCLGTSKIYRILGKTVVCYPIIFDLSDFYMSQDVFLLIDDIKNALQFIKQYWKMHGRPLFLVLIREDNIRGSRFNPILDMLAALKKGIIGGVKVHVDRLQTLISGAVVEQLDFLRISDTEELPEFKSFEELEPPKHSKVKRQSSTPSAPELGQQPDVNISEWKDKPTHEILQKLNDCSCLASQAILLGILLKREGPNFITKEGTVSDHIERVYRRAGSQKLWLAVRYGAAFTQKFSSSIAPHITTFLVHGKQVTLGAFGHEEEVISNPLSPRVIQNIIYYKCNTHDEREAVIQQELVIHIGWIISNNPELFSGMLKIRIGWIIHAMEYELQIRGGDKPALDLYQLSPSEVKQLLLDILQPQQNGRCWLNRRQIDGSLNRTPTGFYDRVWQILERTPNGIIVAGKHLPQQPTLSDMTMYEMNFSLLVEDTLGNIDQPQYRQIVVELLMVVSIVLERNPELEFQDKVDLDRLVKEAFNEFQKDQSRLKEIEKQDDMTSFYNTPPLGKRGTCSYLTKAVMNLLLEGEVKPNNDDPCLIS [PHKB] | 50.2 °C | 49.3 °C | -0.047 | -0.191 | -0.245 | 0.284
3 | MAGAASPCANGCGPGAPSDAEVLHLCRSLEVGTVMTLFYSKKSQRPERKTFQVKLETRQITWSRGADKIEGAIDIREIKEIRPGKTSRDFDRYQEDPAFRPDQSHCFVILYGMEFRLKTLSLQATSEDEVNMWIKGLTWLMEDTLQAPTPLQIERWLRKQFYSVDRNREDRISAKDLKNMLSQVNYRVPNMRFLRERLTDLEQRSGDITYGQFAQLYRSLMYSAQKTMDLPFLEASTLRAGERPELCRVSLPEFQQFLLDYQGELWAVDRLQVQEFMLSFLRDPLREIEEPYFFLDEFVTFLFSKENSVWNSQLDAVCPDTMNNPLSHYWISSSHNTYLTGDQFSSESSLEAYARCLRMGCRCIELDCWDGPDGMPVIYHGHTLTTKIKFSDVLHTIKEHAFVASEYPVILSIEDHCSIAQQRNMAQYFKKVLGDTLLTKPVEISADGLPSPNQLKRKILIKHKKLAEGSAYEEVPTSMMYSENDISNSIKNGILYLEDPVNHEWYPHYFVLTSSKIYYSEETSSDQGNEDEEEPKEVSSSTELHSNEKWFHGKLGAGRDGRHIAERLLTEYCIETGAPDGSFLVRESETFVGDYTLSFWRNGKVQHCRIHSRQDAGTPKFFLTDNLVFDSLYDLITHYQQVPLRCNEFEMRLSEPVPQTNAHESKEWYHASLTRAQAEHMLMRVPRDGAFLVRKRNEPNSYAISFRAEGKIKHCRVQQEGQTVMLGNSEFDSLVDLISYYEKHPLYRKMKLRYPINEEALEKIGTAEPDYGALYEGRNPGFYVEANPMPTFKCAVKALFDYKAQREDELTFIKSAIIQNVEKQEGGWWRGDYGGKKQLWFPSNYVEEMVNPVALEPEREHLDENSPLGDLLRGVLDVPACQIAIRPEGKNNRLFVFSISMASVAHWSLDVAADSQEELQDWVKKIREVAQTADARLTEGKIMERRKKIALELSELVVYCRPVPFDEEKIGTERACYRDMSSFPETKAEKYVNKAKGKKFLQYNRLQLSRIYPKGQRLDSSNYDPLPMWICGSQLVALNFQTPDKPMQMNQALFMTGRHCGYVLQPSTMRDEAFDPFDKSSLRGLEPCAISIEVLGARHLPKNGRGIVCPFVEIEVAGAEYDSTKQKTEFVVDNGLNPVWPAKPFHFQISNPEFAFLRFVVYEEDMFSDQNFLAQATFPVKGLKTGYRAVPLKNNYSEDLELASLLIKIDIFPAKENGDLSPFSGTSLRERGSDASGQLFHGRAREGSFESRYQQPFEDFRISQEHLADHFDSRERRAPRRTRVNGDNRL [PLCG1] | 50.2 °C | 50.2 °C | -0.111 | -0.123 | -0.13 | -0.0513
4 | MAGAEGAAGRQSELEPVVSLVDVLEEDEELENEACAVLGGSDSEKCSYSQGSVKRQALYACSTCTPEGEEPAGICLACSYECHGSHKLFELYTKRNFRCDCGNSKFKNLECKLLPDKAKVNSGNKYNDNFFGLYCICKRPYPDPEDEIPDEMIQCVVCEDWFHGRHLGAIPPESGDFQEMVCQACMKRCSFLWAYAAQLAVTKISTEDDGLVRNIDGIGDQEVIKPENGEHQDSTLKEDVPEQGKDDVREVKVEQNSEPCAGSSSESDLQTVFKNESLNAESKSGCKLQELKAKQLIKKDTATYWPLNWRSKLCTCQDCMKMYGDLDVLFLTDEYDTVLAYENKGKIAQATDRSDPLMDTLSSMNRVQQVELICEYNDLKTELKDYLKRFADEGTVVKREDIQQFFEEFQSKKRRRVDGMQYYCS [UBR7] | 49.9 °C | 50.7 °C | 0.163 | -0.0607 | -0.155 | 0.512
5 | MAGAQPGVHALQLEPPTVVETLRRGSKFIKWDEETSSRNLVTLRVDPNGFFLYWTGPNMEVDTLDISSIRDTRTGRYARLPKDPKIREVLGFGGPDARLEEKLMTVVSGPDPVNTVFLNFMAVQDDTAKVWSEELFKLAMNILAQNASRNTFLRKAYTKLKLQVNQDGRIPVKNILKMFSADKKRVETALESCGLKFNRSESIRPDEFSLEIFERFLNKLCLRPDIDKILLEIGAKGKPYLTLEQLMDFINQKQRDPRLNEVLYPPLRPSQARLLIEKYEPNQQFLERDQMSMEGFSRYLGGEENGILPLEALDLSTDMTQPLSAYFINSSHNTYLTAGQLAGTSSVEMYRQALLWGCRCVELDVWKGRPPEEEPFITHGFTMTTEVPLRDVLEAIAETAFKTSPYPVILSFENHVDSAKQQAKMAEYCRSIFGDALLIEPLDKYPLAPGVPLPSPQDLMGRILVKNKKRHRPSAGGPDSAGRKRPLEQSNSALSESSAATEPSSPQLGSPSSDSCPGLSNGEEVGLEKPSLEPQKSLGDEGLNRGPYVLGPADREDEEEDEEEEEQTDPKKPTTDEGTASSEVNATEEMSTLVNYIEPVKFKSFEAARKRNKCFEMSSFVETKAMEQLTKSPMEFVEYNKQQLSRIYPKGTRVDSSNYMPQLFWNVGCQLVALNFQTLDVAMQLNAGVFEYNGRSGYLLKPEFMRRPDKSFDPFTEVIVDGIVANALRVKVISGQFLSDRKVGIYVEVDMFGLPVDTRRKYRTRTSQGNSFNPVWDEEPFDFPKVVLPTLASLRIAAFEEGGKFVGHRILPVSAIRSGYHYVCLRNEANQPLCLPALLIYTEASDYIPDDHQDYAEALINPIKHVSLMDQRARQLAALIGESEAQAGQETCQDTQSQQLGSQPSSNPTPSPLDASPRRPPGPTTSPASTSLSSPGQRDDLIASILSEVAPTPLDELRGHKALVKLRSRQERDLRELRKKHQRKAVTLTRRLLDGLAQAQAEGRCRLRPGALGGAADVEDTKEGEDEAKRYQEFQNRQVQSLLELREAQVDAEAQRRLEHLRQALQRLREVVLDANTTQFKRLKEMNEREKKELQKILDRKRHNSISEAKMRDKHKKEAELTEINRRHITESVNSIRRLEEAQKQRHDRLVAGQQQVLQQLAEEEPKLLAQLAQECQEQRARLPQEIRRSLLGEMPEGLGDGPLVACASNGHAPGSSGHLSGADSESQEENTQL [PLCB3] | 52.7 °C | 51.7 °C | 0.0201 | 0.0123 | 0.256 | -0.25
